This passage reports percent hexameric and stoichiometry N results from paper PMC11856660 (PLOS Pathogens, 2025).

The target of the assay is HCoV-229E nsp15 protein, H250A mutant (recombinant, hexameric) (human coronavirus 229E (HCoV-229E)). As to the kind of experiment: […] (25 mM HEPES pH 8, 300 mM NaCl, 10% glycerol, 1 mM TCEP); […]; 20 °C; […].

Take “HCoV-229E nsp15 protein, H250A mutant (recombinant, hexameric) (enzyme)”: the percent hexameric is over 98% and the stoichiometry N came out at 6.

In general, stoichiometry N refers to a count of units in the complex or per binding partner.
